Data published in paper doi:10.1101/2025.04.25.650293.

Biological target: ELMSAN1 (human (endogenous in 143B)) (UniProt Q6PJG2)
Assay: affinity purification with mass spectrometry

Chain of UniProt Q6PJG2 (Q6PJG2 whole entry): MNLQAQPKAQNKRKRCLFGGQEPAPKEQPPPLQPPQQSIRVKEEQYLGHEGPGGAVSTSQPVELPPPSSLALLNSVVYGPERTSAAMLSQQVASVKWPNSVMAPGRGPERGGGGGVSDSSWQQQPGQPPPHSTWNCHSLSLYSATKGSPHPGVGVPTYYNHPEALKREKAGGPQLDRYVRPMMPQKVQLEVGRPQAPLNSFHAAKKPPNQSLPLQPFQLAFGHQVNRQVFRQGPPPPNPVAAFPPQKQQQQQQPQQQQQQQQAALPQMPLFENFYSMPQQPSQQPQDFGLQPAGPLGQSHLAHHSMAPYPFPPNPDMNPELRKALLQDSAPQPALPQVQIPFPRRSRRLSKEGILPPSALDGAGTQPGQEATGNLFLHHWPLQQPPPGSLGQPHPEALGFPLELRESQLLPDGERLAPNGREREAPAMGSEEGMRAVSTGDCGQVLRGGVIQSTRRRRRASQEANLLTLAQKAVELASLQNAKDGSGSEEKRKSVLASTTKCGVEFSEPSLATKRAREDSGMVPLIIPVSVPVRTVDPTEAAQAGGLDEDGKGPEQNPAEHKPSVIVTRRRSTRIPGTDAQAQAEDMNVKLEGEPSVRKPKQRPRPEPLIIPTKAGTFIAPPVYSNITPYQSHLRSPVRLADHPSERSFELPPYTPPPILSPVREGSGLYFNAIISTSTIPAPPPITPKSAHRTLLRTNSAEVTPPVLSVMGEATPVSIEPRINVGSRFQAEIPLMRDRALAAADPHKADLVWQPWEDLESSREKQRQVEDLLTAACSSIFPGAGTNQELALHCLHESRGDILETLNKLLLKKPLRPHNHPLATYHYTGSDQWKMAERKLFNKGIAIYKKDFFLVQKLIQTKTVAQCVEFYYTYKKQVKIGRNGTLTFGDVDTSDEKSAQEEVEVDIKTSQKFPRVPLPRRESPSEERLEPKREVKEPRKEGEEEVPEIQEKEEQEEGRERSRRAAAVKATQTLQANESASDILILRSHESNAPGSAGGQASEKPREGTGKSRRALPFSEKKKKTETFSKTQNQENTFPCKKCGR

“PDHX (from UniProt O00330 54-501) (natural protein)” was tested, and the fold decrease in binding with ISX9 against DMSO was > 100 fold.
